Laboratory results: patent US20190367619A1 (ARGENX, published 2019)

T1: human galectin-10-His (recombinant human galectin-10 with TEV-cleavable N-terminal His-tag) (human)
T1 construct: SEC-MALLS: dimer in solution; also called Gal10-His; humanGal10-His
T1 chain: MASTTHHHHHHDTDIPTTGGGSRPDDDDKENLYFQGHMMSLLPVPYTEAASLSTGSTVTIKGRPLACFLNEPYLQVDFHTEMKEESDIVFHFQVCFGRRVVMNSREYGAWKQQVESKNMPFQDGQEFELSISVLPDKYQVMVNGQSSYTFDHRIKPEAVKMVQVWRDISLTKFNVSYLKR

T2: TEV-cleaved wild-type recombinant human galectin-10 (soluble, in Fab complexes, or as recombinant galectin-10 … (human, UniProt Q05315 1-142))
T2 sequence: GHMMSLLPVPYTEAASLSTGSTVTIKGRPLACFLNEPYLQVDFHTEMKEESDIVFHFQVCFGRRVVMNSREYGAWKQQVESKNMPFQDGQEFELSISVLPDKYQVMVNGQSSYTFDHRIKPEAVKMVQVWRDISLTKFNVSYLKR


Tests used:
[1] = biological target: T1, human galectin-10-His (recombinant …); experiment: BLI tandem on galectin-10-His; competitor: saturating 6A08 mIgG1 (10 ug/mL)
Procedure: (§1) In order to identify the galectin-10 binding sites of the different clones, an epitope mapping method (TANDEM), using the BLI technology, was established. Briefly, the galectin-10-His was captured on anti-HIS 1K sensor tips, before incubation with an excess of one antibody (called the “saturating” antibody) then directly transferred to a solution containing the “competitor” antibody at a suboptimal concentration. If the “saturating” and the competitor antibody bind to the same binding sites, no binding of “competitor” will be detected (expressed in nm shift).

[2] = biological target: T1, human galectin-10-His (recombinant …); experiment: SPR Biacore T3000, mouse IgG1 captured by anti-mouse Fc, galectin-10-His as analyte
Procedure: The binding capacity of the mouse IgG1 antibodies to galectin-10 was analyzed on Biacore T3000. For this purpose, a capture approach was set up. A CM5 Chip was coated with polyclonal anti-mouse Fc at 8000 RU, then a fixed concentration of the mouse IgG1 antibody panel (1.5 μg/mL), diluted in HBS-EP pH7.4, was captured to reach a binding signal around 150 RU. Finally, a serial dilution of galectin-10-His (serial dilution, 1 over 2 from 5 μg/mL) diluted in HBS-EP pH7.4 was injected. Raw data were analyzed via BIA evaluation software with a blank subtraction (4-3). The kd/KD and Rmax of each mAb to galectin-10-His was determined using the Fit Kinetics simultaneous ka/kd/Binding with mass transfer/Local Rmax on BIA evaluation software.

[3] = biological target: T1, human galectin-10-His (recombinant …); experiment: BLI tandem on galectin-10-His; competitor: saturating 6A05 mIgG1 (10 ug/mL)
Procedure: as §1

[4] = biological target: T1, human galectin-10-His (recombinant …); experiment: ELISA, mouse IgG1 on coated galectin-10-His (0.2 ug/mL)
Procedure: In a similar setup to that used during the characterization of the scFv-human Fc molecules, the relative binding affinities of the 10 mouse IgG1 antibodies were analyzed by ELISA. A Maxisorp plate was coated overnight with 0.2 μg/mL of galectin-10-His. Then a serial dilution of each clone (from 100 nM, dilution 1/4, 12 points of dilutions) was incubated on coated galectin-10. After several washing steps, detection of the bound mouse IgG1 was carried out with an anti-mouse Fc-HRP antibody. Absorbance was measured at 450 nm (reference at 620 nm) with Tecan instrument. A mouse IgG1 isotype control was used as negative control. A polyclonal anti-galectin-10 antibody was used as positive control for the coating of galectin-10. The raw data (OD values) were plotted on GraphPad Prism 7.01. The EC50 values for each antibody, calculated with a non-linear regression (log(agonist) vs. response Variable slope (four parameters)), are reported in Table 7 below.

[5] = biological target: T2, TEV-cleaved wild-type recombinant human …; experiment: cell-based or functional assay
[6] = biological target: T1, human galectin-10-His (recombinant …); experiment: BLI tandem on galectin-10-His; isotype control as saturating antibody (10 ug/mL)
Procedure: as §1

[7] = biological target: T1, human galectin-10-His (recombinant …); experiment: BLI tandem on galectin-10-His; competitor: saturating 1C09 mIgG1 (10 ug/mL)
Procedure: as §1

[8] = biological target: T1, human galectin-10-His (recombinant …); experiment: BLI tandem on galectin-10-His; competitor: saturating 4E08 mIgG1 (10 ug/mL)
Procedure: as §1

[9] = biological target: T1, human galectin-10-His (recombinant …); experiment: BLI tandem on galectin-10-His; competitor: saturating 1D11 mIgG1 (10 ug/mL)
Procedure: as §1

[10] = biological target: T1, human galectin-10-His (recombinant …); experiment: BLI tandem on galectin-10-His; competitor: saturating 2C07 mIgG1 (10 ug/mL)
Procedure: as §1

[11] = biological target: T1, human galectin-10-His (recombinant …); experiment: BLI tandem on galectin-10-His; competitor: saturating 6E10 mIgG1 (10 ug/mL)
Procedure: as §1

[12] = biological target: T1, human galectin-10-His (recombinant …); experiment: BLI tandem on galectin-10-His; competitor: saturating 6B06 mIgG1 (10 ug/mL)
Procedure: as §1

[13] = biological target: T1, human galectin-10-His (recombinant …); experiment: BLI tandem on galectin-10-His; competitor: saturating 6F06 mIgG1 (10 ug/mL)
Procedure: as §1

[14] = biological target: T1, human galectin-10-His (recombinant …); experiment: BLI tandem on galectin-10-His; competitor: saturating 2F09 mIgG1 (10 ug/mL)
Procedure: as §1

[15] = biological target: T1, human galectin-10-His (recombinant …); experiment: BLI tandem on galectin-10-His; buffer in place of the saturating antibody
Procedure: as §1

binding signal (nm) [1] [nm] | Kd [2] [pM] | koff [2] [s⁻¹] | binding signal (nm) [3] [nm] | Bmax [4] [OD] | EC50 [4] [pM] | 100% Solubilization of CLC (Conc uM) [5] [µM] | binding signal (nm) [6] [nm] | binding signal (nm) [7] [nm] | binding signal (nm) [8] [nm] | binding signal (nm) [9] [nm] | binding signal (nm) [10] [nm] | binding signal (nm) [11] [nm] | binding signal (nm) [12] [nm] | binding signal (nm) [13] [nm] | binding signal (nm) [14] [nm] | binding signal (nm) [15] [nm] | Binder
-0.01 | 500 | 0.00036 | 0.04 | 2.95 | 80 | > 2.2 | 0.73 | 0 | -0.05 | 0.04 | 0.03 | -0.04 | 0.04 | 0.04 | -0.01 | 0.8 | 2C07 mouse IgG1 (antibody, V domains shown, VH on mouse IgG1 heavy chain constant domains (CH1-CH2-CH3), VL on mouse lambda light chain constant domain; also called 2C07 mIgG1) VH: ELQLVESGGGLVQPGGSLRLSCAASGFTFSSYAMSWVRQAPGKGLEWVSNINSGGGSTGYADSVKGRFTISRDNAKNTLYLQMNSLKPEDMAVYYCAKYLRTYYPNAAFGMDYWGKGTLVTVSS VL: QAVLTQPSAVSVSLGQTARITCQGGNFGRYYASWYQQKPGQAPVLVIYRDSERPSGIPERFSGSSSGDTATLTISGAQAEDEADYYCQSGRSSDNAVFGGGTHLTGL
0 | 700 | 0.00487 | 0.05 | 2.93 | 80 | 7.57 | 1.15 | 0 | 0.02 | 0.06 | 0.03 | -0.03 | 0.03 | 0.04 | 0 | 1.22 | 6F06 mouse IgG1 (antibody, V domains shown, also called 6F06 mIgG1) VH: QVQLVESGGGLVQPGGSLRLSCAASEFTFSRYSMSWVRQAPGKGLEWVSTINSGGGSTSYVDSVKGRFTISRDNAKNTLYLQMNSLKPEDTAVYYCTKSQGGISFSTQYGMDYWGKGTLVTVSS VL: NFMLTQPSAVSVSLGQTARITCQGGNFGRYYANWYQQKPGQAPVLVIYKDSERPSGIPERFSGSSSGDTATLTISGAQAEDESDYYCQSGSVSDNAVFGGGTHLAVL
0.02 | 300 | 0.00306 | 0.06 | 3.28 | 80 | > 10 | 0.94 | 0.01 | 0.03 | 0.07 | 0.04 | -0.02 | 0.03 | 0.05 | 0 | 0.98 | 6B06 mouse IgG1 (antibody, V domains shown, also called 6B06 mIgG1) VH: QVQRQESGPGLVKPSQTLSLTCTVSGGSITTNYYSWSWIRQPPGKGLEWIGYIAYSGSTSYSPSLKSRTSISRDTSNNQFSLQLSSVTPEDTAVYYCARSRSSPTTFGMDYWGKGTLVTVSS VL: SSALTQPSAVSVSLGQTARITCQGGNFGRYYVSWYTQKPGQAPVLVIYQDSERPTGIPERFSGSSSGDTATLTISGAQAEDEADYYCQSGTSSDNIVFGGGTHLTVL
0.04 | 500 | 0.00082 | 0.09 | 2.4 | 170 | 10.5 | 1.34 | 0.03 | 0.1 | 0.1 | 0.06 | 0 | 0.04 | 0.07 | 0 | 1.38 | 6E10 mouse IgG1 (antibody, V domains shown, also called 6E010; 6E10 mIgG1) VH: QLQLVESGGGLVQPGGSLRLSCAASGFTFSSYWMYWVRQAPGKGLEWVSAINTGGGSTYYADSVKGRFTISRDNAKNTLYLQMNSLKPEDTALYYCARAGSGVAGTGYDYWGQGTQVTVSS VL: QPVLNQPSAVSVSLGQTARITCQGGNFGYYYVSWYQQKPGQAPVLVIYRDSGRPSGIPERFSGSSSGDTATLTISGAQAEDEADYYCQSGSSSDNAVFGGGTHLTVL
-0.04 | 1000 | 0.00067 | 0.05 | 3.2 | 150 | > 10 | 1.04 | 0 | -0.05 | 0.05 | 0.05 | -0.05 | 0.05 | 0.05 | 0 | 1.08 | 6A08 mouse IgG1 (antibody, V domains shown, also called 6A08 mIgG1) VH: QVQLVESGGGLVQPGGSLRLSCAASGFTFSSYAMSWVRQAPGKGPEWVSAINRGGGSTYYADSVKGRFTISRDNAKNTLYLQMNSLKPEDAAVYYCATPGDRLWYYRYDYWGQGAQVTVSS VL: QTVVTQEPSLSVSPGGTVTLTCGLSSGSVTSSNYPGWYQQTPGQAPRLLIYNTNSRYSGVPNRFSGSISGNKAALIISGAQPEDEADYHCALNRVRGTYRVFGGGTHLTVL
